From patent US20220153832A1 (PIONYR IMMUNOTHERAPEUTICS, published 2022)
Residue numbers refer to the chain shown, from its start. One block for each binder: values may come before it.

Legend:
[1] = molecular target: T1, N-terminally polyhistidine tagged human MARCO ECD (147-520), recombinant (human, UniProt Q9UEW3 147-520); assay: SPR, single cycle (sc)
T1 construct: also called PI-RG-3000; recombinant human MARCO; not shown: N-terminal polyhistidine tag
T1 sequence: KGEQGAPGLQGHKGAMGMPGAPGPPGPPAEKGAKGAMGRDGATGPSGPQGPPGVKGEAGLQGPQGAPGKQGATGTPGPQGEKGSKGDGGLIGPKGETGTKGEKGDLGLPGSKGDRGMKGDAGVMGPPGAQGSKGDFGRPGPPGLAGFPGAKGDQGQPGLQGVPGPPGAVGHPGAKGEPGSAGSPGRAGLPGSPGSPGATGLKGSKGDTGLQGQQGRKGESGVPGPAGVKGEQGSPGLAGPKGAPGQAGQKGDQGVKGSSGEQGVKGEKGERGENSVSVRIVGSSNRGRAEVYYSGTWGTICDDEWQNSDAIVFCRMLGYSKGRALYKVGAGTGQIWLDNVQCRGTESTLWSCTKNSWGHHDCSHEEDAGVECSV

[2] = molecular target: T2, recombinant cynomolgus MARCO protein (cynomolgus, UniProt A0A2K5X0Z2 65-519); assay: SPR, single cycle (sc)
T2 construct: Construct not described; also called cyno MARCO; cynoMARCO
T2 sequence: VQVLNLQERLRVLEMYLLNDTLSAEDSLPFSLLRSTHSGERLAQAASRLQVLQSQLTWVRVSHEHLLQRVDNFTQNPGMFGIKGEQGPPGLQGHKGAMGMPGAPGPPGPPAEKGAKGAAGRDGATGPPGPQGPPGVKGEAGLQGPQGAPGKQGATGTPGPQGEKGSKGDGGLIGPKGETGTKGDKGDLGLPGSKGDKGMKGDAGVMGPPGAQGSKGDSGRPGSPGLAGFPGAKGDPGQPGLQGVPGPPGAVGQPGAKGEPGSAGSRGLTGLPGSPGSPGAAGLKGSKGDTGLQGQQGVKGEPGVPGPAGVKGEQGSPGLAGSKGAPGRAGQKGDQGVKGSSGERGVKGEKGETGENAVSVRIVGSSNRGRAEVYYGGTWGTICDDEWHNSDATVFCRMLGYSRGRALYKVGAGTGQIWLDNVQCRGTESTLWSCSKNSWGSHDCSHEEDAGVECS

[3] = molecular target: T3, Human Macrophage Receptor with Collagenous Structure (MARCO), full length, on cells (human, UniProt Q9UEW3 1-520); assay: flow cytometry, cells overexpressing human MARCO
T3 construct: the cell type is named under assay; also called huMARCO; HuMARCO
T3 sequence: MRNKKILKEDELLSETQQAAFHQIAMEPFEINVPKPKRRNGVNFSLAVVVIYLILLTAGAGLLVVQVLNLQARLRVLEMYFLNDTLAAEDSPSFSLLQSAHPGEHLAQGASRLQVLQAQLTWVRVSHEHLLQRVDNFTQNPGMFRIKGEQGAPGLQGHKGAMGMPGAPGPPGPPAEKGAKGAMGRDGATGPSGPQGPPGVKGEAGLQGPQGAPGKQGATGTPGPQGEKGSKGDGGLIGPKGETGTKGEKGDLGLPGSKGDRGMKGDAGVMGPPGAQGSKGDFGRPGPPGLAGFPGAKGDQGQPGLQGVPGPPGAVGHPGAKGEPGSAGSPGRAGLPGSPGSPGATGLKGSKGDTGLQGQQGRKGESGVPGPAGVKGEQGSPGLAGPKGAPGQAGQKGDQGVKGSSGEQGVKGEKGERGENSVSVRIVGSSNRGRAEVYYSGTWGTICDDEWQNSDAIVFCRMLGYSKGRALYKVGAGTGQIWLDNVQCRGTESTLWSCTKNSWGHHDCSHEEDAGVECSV

[4] = molecular target: T1, N-terminally polyhistidine tagged human …; assay: label-free kinetics (ProbeLife Gator), mAb captured, human MARCO
Protocol: The kinetics assay used either anti-mouse Fc or anti-human Fc probes to capture the anti-MARCO antibodies onto the probe, and then a five-step kinetic protocol was used to measure the affinity of the antibodies to the antigen, including the following steps: baseline, loading, baseline, association, and dissociation. The kinetics buffer (K buffer) provided by ProbeLife was used to establish the baseline for 60 seconds, and then the anti-mFc or anti-hFc probes were loaded with 200 nM of the antibodies for 120s until the capture reached saturation, measurement of the baseline in K buffer was performed for another 60s, followed by the association step using 200 nM antigen (human MARCO, mouse MARCO or cyno MARCO), and the dissociation step performed in K buffer for 5-10 minutes. The assay was done at 37° C. to maximize antibody:antigen dissociation.
Kinetics and epitope binning analysis of the newly generated anti-human MARCO antibodies was performed as described in Example 3.

[5] = molecular target: T3, Human Macrophage Receptor with …; assay: flow cytometry, 293T HuMARCO cells
Outline: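 HEK293T cells expressing human or cynomolgus MARCO were tested for antibody binding by flow cytometry. At 100,000 cells/well, Zombie NIR-stained cells received an 8-point three-fold dilution of antibody from 100 nM in D-PBS/2% FBS/2 mM EDTA for 1 hr on ice, then APC goat anti-mouse IgG for 30 min on ice. Geometric mean fluorescence intensities were analysed in FlowJo and Prism.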

B1: PI-3010-AB (antibody, human IgG1, kappa)
heavy: not shown
light: DIQMTQSPASLSTSLGETVSIECLASEGISNDLAWYQQKSGKSPQLLIYAASRLQDGVPSRFSGSGSGTRYSLKISGMQPEDEADYFCQQSYKYPLTFGSGTKLEIKRTVAAPSVFIFPPSDEQLKSGTASVVCLLNNFYPREAKVQWKVDNALQSGNSQESVTEQDSKDSTYSLSSTLTLSKADYEKHKVYACEVTHQGLSSPVTKSFNRGEC
Kd [1]: 0.43 nM | Kd [2]: 0.259 nM | EC50 [3]: 0.68 nM

B3: PI-HX-3043 (antibody, rat IgG2a)
heavy: QVNLLQSRAALVKPGASVKLSCKASGYTFTDYYLHWVKQSHAKSLEWIGYINPNNAYTSYNEKFKSKATLTVDKSTNTAYMELSRLTSADSATYYCARDTTDYYNLHFAYWGQGTLVTVSSAETTAPSVYPLAPGTALKSNSMVTLGCLVKGYFPEPVTVTWNSGALSSGVHTFPAVLQSGLYTLTSSVTVPSSTWSSQAVTCNVAHPASSTKVDKKIVPRECNPCGCTGSEVSSVFIFPPKTKDVLTITLTPKVTCVVVDISQNDPEVRFSWFIDDVEVHTAQTHAPEKQSNSTLRSVSELPIVHRDWLNGKTFKCKVNSGAFPAPIEKSISKPEGTPRGPQVYTMAPPKEEMTQSQVSITCMVKGFYPPDIYTEWKMNGQPQENYKNTPPTMDTDGSYFLYSKLNVKKETWQQGNTFTCSVLHEGLHNHHTEKSLSHSP
light: DIQMTQSPASLSASLGETVSIECLTSEGISNDLAWYQQKSGKSPQLLIYDASRLEDGVPSRFSGSGSGTRYSLKISGMQTEDEADYFCQQSYKYPLTFGSGTKLEIKRADAAPTVSIFPPSTEQLATGGASVVCLMNNFYPRDISVKWKIDGTERRDGVLDSVTDQDSKDSTYSMSSTLSLTKADYESHNLYTCEVVHKTSSSPVVKSFNRNEC
notes: Parental rat hybridoma, rat IgG2a
koff [4]: 0.000849 s⁻¹ | kon [4]: 233000 M⁻¹ s⁻¹

B5: PI-HX-3016 (antibody, rat IgG1, V domains shown)
VH: EVQLVESGGGLVKPGASLKLSCVASGFTFSDDWMNWVRQTPGKAMEWIGDIKYDGSYTNYVPSLKNRLTISRDNAKNTLYLQMTNVRSEDTATYYCTSGGVFDYWGQGVMVTVSS
VL: EIVLSQSPTTMAASPGEKVTITCRASSSVSYMHWFQQKSGTSPKPWIYDTSKLASGVPDRFSGSGSGTSYSLTISSMEAEDAATYYCLQRSGYPPTFGAGTKLEVK
notes: Rat IgG1 hybridoma antibody
binding result [5]: no binding

B6: PI-3015-AB (antibody, human IgG1, kappa)
heavy: not shown
light: DIQMTQSPSSLSASVGDRVTITCRASEGISNDLAWYQQKPGKAPKLLIYAASRLQSGVPSRFSGSGSGTDYTLTISSMQPEDFATYYCQQSYKYPLTFGQGTKLEIKRTVAAPSVFIFPPSDEQLKSGTASVVCLLNNFYPREAKVQWKVDNALQSGNSQESVTEQDSKDSTYSLSSTLTLSKADYEKHKVYACEVTHQGLSSPVTKSFNRGEC
Kd [1]: 0.911 nM | Kd [2]: 0.611 nM | EC50 [3]: 0.86 nM

Second part, the binder after the results:

koff [4]: 0.000798 s⁻¹ | kon [4]: 443000 M⁻¹ s⁻¹
B2: PI-HX-3031 (antibody)
heavy: QVQLKESGPGLVQPSQTLSLTCTVSGFSLTSYHVSWVRQPPGKGLEWMGAIWTGGSIAYNSLLKSRLSISRDTSKSQVFLKMNSLQTEDTATYYCARDLSDYYSSYTSFDYWGQGVMVTVSTAETTAPSVYPLAPGTALKSNSMVTLGCLVKGYFPEPVTVTWNSGALSSGVHTFPAVLQSGLYTLTSSVTVPSSTWSSQAVTCNVAHPASSTKVDKKIVPRECNPCGCTGSEVSSVFIFPPKTKDVLTITLTPKVTCVVVDISQNDPEVRFSWFIDDVEVHTAQTHAPEKQSNSTLRSVSELPIVHRDWLNGKTFKCKVNSGAFPAPIEKSISKPEGTPRGPQVYTMAPPKEEMTQSQVSITCMVKGFYPPDIYTEWKMNGQPQENYKNTPPTMDTDGSYFLYSKLNVKKETWQQGNTFTCSVLHEGLHNHHTEKSLSHSP
light: B3 light with A13T, T25A, D50A, E55Q, T80P
notes: as for B3

binding result [5]: no binding
B4: PI-HX-3021 (antibody, V domains shown)
VH: QVRLVQSGTALVRPGASVRMSCTASGYSFTDYWVSWVKQSHGQSLEWIGEIYPNSGTTNFNEKFEGKATLTVDKSTSTAYMELSRLTSEDSAIYYCTGEGTFDYWGQGVMVTVSS
VL: B5 VL with S5T, A25P, V29L, Y31N, G92S, V105L
notes: Rat IgG2a hybridoma antibody; Not the effector dead PI-3021; also called PI-3007 (name of the recombinant form)
